B1: D2D3M3M4 (L205K) (protein)
chain: CEVPTRLNSASLKQPYITQNYFPVGTVVEYECRPGYRREPSLSPKLTCLQNLKWSTAVEFCKKKSCPNPGEIRNGQIDVPGGILFGATISFSCNTGYKLFGSTSSFCKISGSSVQWSDPLPECREIYCTPPPKIKNGKHTFSEVEVFEYLDAVTYSCDPAPGPDPFSLIGESTIYCGDNSVWSRAAPECKVVKCRFPVVENGKQISGFGKKFYYKATVMFECDKGFYLDGSDTIVCDSNSTWDPPVPKCLKVL
B2: D2D3M3M4 (Multi-5) or DCP (decay-cofactor protein) (protein)
chain: B1 chain with F100I, K108L, P119K, E122I, R124E, E125K, I126V, Y127L
B3: D2D3M3M4 (F197I) (protein)
chain: B1 chain with F100I, K108L
B4: D2D3M3M4 (K195Y) (protein)
chain: B1 chain with K98Y, K108L
B5: D2D3M3M4 (P216K) (protein)
chain: B1 chain with K108L, P119K
B6: D2D3M3M4 (S199K) (protein)
chain: B1 chain with S102K, K108L
B7: D2D3M3M4 (Multi-1) (protein)
chain: B1 chain with K108L, E122I, R124E, E125K, I126V, Y127L
B8: D2D3M3M4 (T192E) (protein)
chain: B1 chain with T95E, K108L
B9: D2D3M3M4 (T200Y) (protein)
chain: B1 chain with T103Y, K108L
B10: D2M2-4 (Tetra) (protein)
chain: CEVPTRLNSASLKQPYITQNYFPVGTVVEYECRPGYRRQPSLSPKLTCLQNLKWSTAVEFCKKKSCPNIRDPLNGQAVPANGTYEFGYQMHFICNEGYYLAGEEILYCELKGSVAIWSGKPPICEKVKCTPPPKIKNGKHTFSEVEVFEYLDAVTYSCDPAPGPDPFSLIGESTIYCGDNSVWSRAAPECKVVKCRFPVVENGKQISGFGKKFYYKATVMFECDKGFYLDGSDTIVCDSNSTWDPPVPKCLKVL

Changes are numbered by the printed parent chain. Names may count otherwise.

Data on ten molecules can be found in US20220195012A1.

Chain of CP C3-convertase (C4b2a) (P0C0L4 757-1446 limits assumed, chain 1 of 4): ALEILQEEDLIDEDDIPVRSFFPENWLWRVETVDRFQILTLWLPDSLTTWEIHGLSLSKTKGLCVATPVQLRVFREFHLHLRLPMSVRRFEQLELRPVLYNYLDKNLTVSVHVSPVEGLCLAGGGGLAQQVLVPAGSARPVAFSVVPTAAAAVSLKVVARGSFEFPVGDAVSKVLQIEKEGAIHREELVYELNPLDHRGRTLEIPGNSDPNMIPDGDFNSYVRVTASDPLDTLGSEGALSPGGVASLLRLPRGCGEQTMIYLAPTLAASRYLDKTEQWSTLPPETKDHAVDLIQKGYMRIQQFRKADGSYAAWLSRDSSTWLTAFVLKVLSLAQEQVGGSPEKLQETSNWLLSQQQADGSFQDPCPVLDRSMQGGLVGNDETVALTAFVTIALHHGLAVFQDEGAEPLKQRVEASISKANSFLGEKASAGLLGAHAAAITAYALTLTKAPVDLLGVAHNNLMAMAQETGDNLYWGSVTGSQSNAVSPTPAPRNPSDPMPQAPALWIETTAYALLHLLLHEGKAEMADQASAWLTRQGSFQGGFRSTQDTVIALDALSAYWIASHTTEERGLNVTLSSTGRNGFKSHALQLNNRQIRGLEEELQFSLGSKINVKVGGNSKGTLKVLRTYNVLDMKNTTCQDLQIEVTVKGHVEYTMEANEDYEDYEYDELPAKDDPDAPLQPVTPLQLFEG
Chain of CP C3-convertase (C4b2a) (P0C0L4 20-675 limits assumed, chain 2 of 4): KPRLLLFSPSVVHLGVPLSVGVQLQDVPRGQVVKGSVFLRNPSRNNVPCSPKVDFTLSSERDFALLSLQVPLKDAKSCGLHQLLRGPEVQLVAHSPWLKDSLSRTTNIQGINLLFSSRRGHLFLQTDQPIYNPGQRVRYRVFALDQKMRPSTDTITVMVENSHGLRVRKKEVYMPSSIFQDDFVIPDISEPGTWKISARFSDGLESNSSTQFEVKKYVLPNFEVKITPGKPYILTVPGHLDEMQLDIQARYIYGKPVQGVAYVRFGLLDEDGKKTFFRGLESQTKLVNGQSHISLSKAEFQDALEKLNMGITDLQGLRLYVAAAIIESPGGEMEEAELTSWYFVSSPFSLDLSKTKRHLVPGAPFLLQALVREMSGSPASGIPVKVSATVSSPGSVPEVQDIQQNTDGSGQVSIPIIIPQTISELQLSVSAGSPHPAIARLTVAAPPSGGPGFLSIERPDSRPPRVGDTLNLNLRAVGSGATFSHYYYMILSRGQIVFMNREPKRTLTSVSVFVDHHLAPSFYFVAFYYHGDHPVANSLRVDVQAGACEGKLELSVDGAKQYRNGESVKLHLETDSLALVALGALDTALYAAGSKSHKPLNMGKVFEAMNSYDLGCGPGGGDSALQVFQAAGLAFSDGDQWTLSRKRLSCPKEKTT
Chain of CP C3-convertase (C4b2a) (P0C0L4 1454-1744 limits assumed, chain 3 of 4): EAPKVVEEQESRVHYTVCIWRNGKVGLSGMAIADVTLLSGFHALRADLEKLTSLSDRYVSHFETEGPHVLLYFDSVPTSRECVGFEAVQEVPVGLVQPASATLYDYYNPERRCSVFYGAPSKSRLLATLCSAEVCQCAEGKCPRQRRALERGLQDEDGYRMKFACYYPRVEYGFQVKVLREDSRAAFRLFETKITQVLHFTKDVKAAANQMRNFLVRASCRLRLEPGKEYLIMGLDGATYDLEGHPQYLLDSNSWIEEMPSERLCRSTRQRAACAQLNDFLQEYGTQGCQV
Chain of CP C3-convertase (C4b2a) (P06681 244-752 limits assumed, chain 4 of 4, further chain): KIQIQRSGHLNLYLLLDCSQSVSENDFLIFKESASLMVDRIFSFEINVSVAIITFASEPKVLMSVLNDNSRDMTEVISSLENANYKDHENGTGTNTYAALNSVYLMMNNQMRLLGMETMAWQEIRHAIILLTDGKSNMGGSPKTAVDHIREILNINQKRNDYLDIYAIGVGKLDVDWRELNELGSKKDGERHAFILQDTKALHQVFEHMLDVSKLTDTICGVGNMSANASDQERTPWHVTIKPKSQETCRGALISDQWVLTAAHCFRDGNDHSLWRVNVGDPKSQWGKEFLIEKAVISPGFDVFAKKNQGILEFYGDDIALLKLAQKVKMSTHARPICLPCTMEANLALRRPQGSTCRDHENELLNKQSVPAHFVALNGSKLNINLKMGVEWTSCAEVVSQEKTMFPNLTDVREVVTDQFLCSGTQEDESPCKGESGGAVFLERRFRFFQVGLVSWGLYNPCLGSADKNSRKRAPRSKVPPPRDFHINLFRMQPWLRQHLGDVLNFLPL

Substrate in the first experiment: CP C3-convertase (C4b2a) (UniProt P0C0L4)
The experiment can be described thus: cell-based or functional assay.
Take B1: the CP-DAA IC50 came out at 9.2 µM and the Relative CP-DAA is 1.7.

On to B2, for which the CP-DAA IC50 turned out to be 12.7 µM and the Relative CP-DAA worked out at 1.3.

B3: the CP-DAA IC50 was found to be 30.7 µM and the Relative CP-DAA was found to be 0.5.

B4: the CP-DAA IC50 was > 100 µM and the Relative CP-DAA was found to be 6.2.

On to B5, for which the CP-DAA IC50 was 21 µM and the Relative CP-DAA was 0.75.

Turning to B6, the CP-DAA IC50 was 23.7 µM and the Relative CP-DAA turned out to be 0.7.

Take B7: the CP-DAA IC50 is 22.6 µM and the Relative CP-DAA is 0.7.

In the case of B8, the CP-DAA IC50 came out at 15.5 µM and the Relative CP-DAA was 1.

On to B9, for which the CP-DAA IC50 came out at 17.7 µM and the Relative CP-DAA is 0.9.

In another experiment the target is AP C3-convertase (C3bBb) (UniProt P01024). Briefly: cell-based or functional assay.
Chain of AP C3-convertase (C3bBb) (P01024 23-667 limits assumed, chain 1 of 3): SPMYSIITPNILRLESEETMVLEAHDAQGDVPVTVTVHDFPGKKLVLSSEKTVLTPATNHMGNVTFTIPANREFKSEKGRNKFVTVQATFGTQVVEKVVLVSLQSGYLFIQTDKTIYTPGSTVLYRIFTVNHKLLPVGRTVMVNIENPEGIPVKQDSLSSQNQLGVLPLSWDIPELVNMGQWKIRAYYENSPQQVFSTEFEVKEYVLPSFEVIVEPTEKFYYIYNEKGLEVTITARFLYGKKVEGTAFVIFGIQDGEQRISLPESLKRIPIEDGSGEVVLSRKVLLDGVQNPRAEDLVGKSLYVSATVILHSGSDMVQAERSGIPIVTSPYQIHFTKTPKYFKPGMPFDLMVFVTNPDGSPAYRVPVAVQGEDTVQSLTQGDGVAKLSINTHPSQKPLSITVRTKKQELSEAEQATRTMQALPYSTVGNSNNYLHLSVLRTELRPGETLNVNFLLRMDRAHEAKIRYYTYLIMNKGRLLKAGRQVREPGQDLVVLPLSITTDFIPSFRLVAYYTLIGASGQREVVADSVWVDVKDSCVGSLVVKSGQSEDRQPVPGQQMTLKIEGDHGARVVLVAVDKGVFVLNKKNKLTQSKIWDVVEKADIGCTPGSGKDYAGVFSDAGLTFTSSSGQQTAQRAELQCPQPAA
Chain of AP C3-convertase (C3bBb) (P01024 749-1663 limits assumed, chain 2 of 3): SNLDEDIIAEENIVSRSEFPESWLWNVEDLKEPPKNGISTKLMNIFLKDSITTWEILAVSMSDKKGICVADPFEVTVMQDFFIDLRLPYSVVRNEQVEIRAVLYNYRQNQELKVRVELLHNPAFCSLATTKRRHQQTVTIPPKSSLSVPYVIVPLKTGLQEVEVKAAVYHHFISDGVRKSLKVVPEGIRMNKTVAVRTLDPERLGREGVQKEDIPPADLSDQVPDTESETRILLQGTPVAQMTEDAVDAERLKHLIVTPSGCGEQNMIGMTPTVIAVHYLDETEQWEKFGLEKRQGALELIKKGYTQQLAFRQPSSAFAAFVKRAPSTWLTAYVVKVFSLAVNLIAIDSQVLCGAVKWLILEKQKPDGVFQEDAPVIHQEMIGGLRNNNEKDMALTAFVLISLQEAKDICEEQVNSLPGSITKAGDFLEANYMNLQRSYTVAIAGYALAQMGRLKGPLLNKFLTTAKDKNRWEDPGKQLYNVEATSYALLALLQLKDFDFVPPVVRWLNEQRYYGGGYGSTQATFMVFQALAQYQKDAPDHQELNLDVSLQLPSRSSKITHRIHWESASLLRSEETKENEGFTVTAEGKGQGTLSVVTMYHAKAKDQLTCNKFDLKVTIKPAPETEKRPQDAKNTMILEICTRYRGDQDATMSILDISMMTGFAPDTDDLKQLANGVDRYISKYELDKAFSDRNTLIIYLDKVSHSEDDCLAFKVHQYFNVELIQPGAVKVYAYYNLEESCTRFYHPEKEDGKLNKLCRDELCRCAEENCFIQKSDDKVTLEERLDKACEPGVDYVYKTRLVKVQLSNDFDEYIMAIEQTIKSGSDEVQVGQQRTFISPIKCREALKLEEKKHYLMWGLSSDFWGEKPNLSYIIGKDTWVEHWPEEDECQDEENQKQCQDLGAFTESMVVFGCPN
Chain of AP C3-convertase (C3bBb) (P00751 260-764 limits assumed, chain 3 of 3, further chain): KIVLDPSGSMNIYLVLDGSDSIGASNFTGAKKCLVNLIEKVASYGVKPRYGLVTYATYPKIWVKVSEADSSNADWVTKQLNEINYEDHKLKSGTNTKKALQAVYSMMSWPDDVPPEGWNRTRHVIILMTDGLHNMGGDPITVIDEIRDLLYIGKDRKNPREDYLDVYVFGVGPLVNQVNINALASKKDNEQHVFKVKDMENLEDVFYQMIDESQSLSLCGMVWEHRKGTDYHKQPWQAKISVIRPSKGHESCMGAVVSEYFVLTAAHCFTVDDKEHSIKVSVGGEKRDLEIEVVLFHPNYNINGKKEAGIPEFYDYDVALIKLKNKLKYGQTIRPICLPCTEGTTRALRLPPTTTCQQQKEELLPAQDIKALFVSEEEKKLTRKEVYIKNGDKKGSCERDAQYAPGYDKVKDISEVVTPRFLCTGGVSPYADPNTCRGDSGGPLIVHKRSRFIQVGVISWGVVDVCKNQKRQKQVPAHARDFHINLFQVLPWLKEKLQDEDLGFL
In the case of B1, the AP-DAA IC50 is > 0.01 µM and the Relative AP-DAA was 0.2.

The molecule B2 registered an AP-DAA IC50 of 0.0024 µM and a Relative AP-DAA of 1.3.

Regarding B3, the AP-DAA IC50 is 0.0044 µM and the Relative AP-DAA was determined as 0.3.

On to B4, for which the AP-DAA IC50 was > 0.01 µM and the Relative AP-DAA was found to be 0.2.

Regarding B5, the AP-DAA IC50 came out at 0.0034 µM and the Relative AP-DAA was 0.6.

B6 gave an AP-DAA IC50 of 0.0065 µM and a Relative AP-DAA of 0.3.

As to B7, the AP-DAA IC50 stood at 0.0019 µM and the Relative AP-DAA came out at 1.1.

The molecule B8 came in with an AP-DAA IC50 of 0.0025 µM and a Relative AP-DAA of 0.9.

As to B9, the AP-DAA IC50 amounted to 0.0037 µM and the Relative AP-DAA stood at 0.56.

B10 registered an AP-DAA, fold increase compared to D2M2-4 of 12.5 fold and an AP-DAA, fold less compared to DAF of 138 fold.

For the next experiment, the target named is C4b (UniProt P0C0L4). Briefly: cell-based or functional assay.
Chain of C4b (P0C0L4 757-1446 limits assumed, chain 1 of 3): as the sequence (P0C0L4 757-1446 limits assumed, chain 1 of 4) above
Chain of C4b (P0C0L4 20-675 limits assumed, chain 2 of 3): as the sequence (P0C0L4 20-675 limits assumed, chain 2 of 4) above
Chain of C4b (P0C0L4 1454-1744 limits assumed, chain 3 of 3): as the sequence (P0C0L4 1454-1744 limits assumed, chain 3 of 4) above
In turn, B1 returned a C4b CFA: Time (min.) for 50% cleavage of C4B α′-chain of 433 min and a Relative C4b CFA of 1.07.

B2 gave a C4b CFA: Time (min.) for 50% cleavage of C4B α′-chain of 3.1 min and a Relative C4b CFA of 3.

B3 returned a C4b CFA: Time (min.) for 50% cleavage of C4B α′-chain of 96.7 min and a Relative C4b CFA of 7.

Take B4: the C4b CFA: Time (min.) for 50% cleavage of C4B α′-chain was > 540 min and the Relative C4b CFA was < 0.85.

As for B5, the C4b CFA: Time (min.) for 50% cleavage of C4B α′-chain is 93.3 min and the Relative C4b CFA worked out at 5.

In turn, B6 registered a C4b CFA: Time (min.) for 50% cleavage of C4B α′-chain of 181 min and a Relative C4b CFA of 2.5.

Regarding B7, the C4b CFA: Time (min.) for 50% cleavage of C4B α′-chain was 493 min and the Relative C4b CFA amounted to 1.07.

In the case of B8, the C4b CFA: Time (min.) for 50% cleavage of C4B α′-chain amounted to 268 min and the Relative C4b CFA was 8.7.

B9 had a C4b CFA: Time (min.) for 50% cleavage of C4B α′-chain of 513 min and a Relative C4b CFA of 0.9.

The target in a further experiment is C3b (UniProt P01024). The experiment can be described thus: cell-based or functional assay.
Chain of C3b (P01024 23-667 limits assumed, chain 1 of 2): as the sequence (P01024 23-667 limits assumed, chain 1 of 3) above
Chain of C3b (P01024 749-1663 limits assumed, chain 2 of 2): as the sequence (P01024 749-1663 limits assumed, chain 2 of 3) above
B1 registered a C3b CFA: Time (min.) for 50% cleavage of C3B α′-chain of 104 min and a Relative C3b CFA of 0.8.

Take B2: the C3b CFA: Time (min.) for 50% cleavage of C3B α′-chain came to 3.3 min and the Relative C3b CFA is 1.5.

The molecule B3 came in with a C3b CFA: Time (min.) for 50% cleavage of C3B α′-chain of 49.8 min and a Relative C3b CFA of 1.7.

B5 displayed a C3b CFA: Time (min.) for 50% cleavage of C3B α′-chain of 30.1 min and a Relative C3b CFA of 2.7.

In turn, B6 gave a C3b CFA: Time (min.) for 50% cleavage of C3B α′-chain of 18.9 min and a Relative C3b CFA of 4.4.

Consider B7, for which the C3b CFA: Time (min.) for 50% cleavage of C3B α′-chain was found to be 27.3 min and the Relative C3b CFA came out at 3.

Molecule B8 returned a C3b CFA: Time (min.) for 50% cleavage of C3B α′-chain of 74.3 min and a Relative C3b CFA of 1.1.

In turn, B9 displayed a C3b CFA: Time (min.) for 50% cleavage of C3B α′-chain of 103 min and a Relative C3b CFA of 0.8.
